± gives the uncertainty stated by the source.
B1: Calcium-binding protein 2, residues 155 to 219; numbered along this chain, Q9NPB3 (parent)
chain: RELRDAFREFDTNGDGRISVGELRAALKALLGERLSQREVDEILQDVDLNGDGLVDFEEFVRMMS

Variants of: B1
Assay: abundance fitness (aPCA) (normalised: wild type 0, dead -1); higher = more abundant; growth selection in yeast, the domain comes from the species named
Conditions: Homo sapiens

Abundance fitness of substitutions, site by site:
N50: Q -0.014 ± 0.09; A -0.056 ± 0.077; Y -0.419 ± 0.16; M -0.833 ± 0.2; D 0.186 ± 0.077; S -0.092 ± 0.067; W -0.627 ± 0.067; E -0.19 ± 0.061; I -0.488 ± 0.12; V -0.254 ± 0.061; L -0.232 ± 0.062; F -0.346 ± 0.14; K 0.028 ± 0.068; C 0.032 ± 0.12; P -0.2 ± 0.062; T -0.022 ± 0.084
D46: T 0.042 ± 0.1; W -0.446 ± 0.08; Y -0.475 ± 0.22; M -0.42 ± 0.076; V -0.343 ± 0.083; Q -0.152 ± 0.089; L -0.326 ± 0.1; I -0.408 ± 0.12; N -0.2 ± 0.11; R -0.493 ± 0.066; K -0.148 ± 0.13; S -0.123 ± 0.069; H -0.366 ± 0.16
V55: R -0.78 ± 0.046; D -1.16 ± 0.09; N -0.714 ± 0.069; G -0.829 ± 0.044; M -0.338 ± 0.057; T -0.038 ± 0.055; S -0.394 ± 0.038; Q -0.391 ± 0.084; E -1.02 ± 0.16; C -0.023 ± 0.041; K -0.691 ± 0.087; L -0.028 ± 0.045; I -0.185 ± 0.054; P -0.874 ± 0.098; H -0.382 ± 0.07; F 0.048 ± 0.063; A -0.189 ± 0.057; W -0.192 ± 0.053
G51: F -0.269 ± 0.18; T 0.006 ± 0.11; V 0.003 ± 0.06; D 0.057 ± 0.16; R -0.085 ± 0.04; A 0.062 ± 0.054; W -0.301 ± 0.062; H -0.071 ± 0.15; N 0.098 ± 0.12; P 0.151 ± 0.1; Y -0.107 ± 0.19; K 0.014 ± 0.17; E 0.181 ± 0.063; M 0.047 ± 0.071; L 0.06 ± 0.061
D52: Y -0.18 ± 0.072; H -0.049 ± 0.11; E 0.043 ± 0.068; A 0.009 ± 0.052; T -0.196 ± 0.097; L -0.108 ± 0.062; M -0.168 ± 0.086; R -0.149 ± 0.064; K -0.094 ± 0.1; C -0.124 ± 0.091; I -0.126 ± 0.082; P -0.145 ± 0.09; F -0.414 ± 0.18; Q -0.121 ± 0.11; S -0.133 ± 0.08
G53: E -0.199 ± 0.086; I -0.147 ± 0.12; M -0.141 ± 0.09; R -0.397 ± 0.057; W -0.361 ± 0.069; Y -0.012 ± 0.25; V -0.063 ± 0.062; D -0.088 ± 0.062; C -0.121 ± 0.13; S -0.05 ± 0.068; P -0.188 ± 0.085; H 0.011 ± 0.11; A -0.115 ± 0.064; T -0.107 ± 0.11; L -0.23 ± 0.067
V47: D -0.236 ± 0.053; H 0.057 ± 0.12; C -0.241 ± 0.088; F -0.15 ± 0.051; K -0.064 ± 0.11; L -0.475 ± 0.049; E -0.137 ± 0.056; Y -0.01 ± 0.058; A -0.143 ± 0.055; I -0.204 ± 0.048; T -0.041 ± 0.069; Q 0.013 ± 0.1; M -0.303 ± 0.088; N -0.211 ± 0.06; W -0.199 ± 0.072; P -0.394 ± 0.049
D48: K 0.152 ± 0.082; Q 0.127 ± 0.074; M 0.05 ± 0.11; V 0.092 ± 0.048; P -0.231 ± 0.086; F -0.434 ± 0.27; R 0.185 ± 0.05; E 0.131 ± 0.1; W -0.103 ± 0.065; G -0.529 ± 0.081; H 0.108 ± 0.11; N 0.122 ± 0.13; T 0.057 ± 0.098; Y 0.042 ± 0.099; A 0.068 ± 0.098; L -0.015 ± 0.066; S 0.109 ± 0.087; I 0.105 ± 0.41
L54: D -0.208 ± 0.14; H -0.292 ± 0.31; P -0.291 ± 0.063; R -0.283 ± 0.046; Q -0.088 ± 0.11; E -0.07 ± 0.056; F -0.212 ± 0.11; A -0.211 ± 0.057; K -0.207 ± 0.19; W -0.346 ± 0.043; C -0.21 ± 0.14; G 0.099 ± 0.053; V -0.241 ± 0.047; I -0.223 ± 0.2; T 0.012 ± 0.096; Y -0.177 ± 0.12
D56: V 0.044 ± 0.077; H -0.015 ± 0.14; T 0.019 ± 0.069; F -0.862 ± 0.26; W -0.531 ± 0.089; Y -0.198 ± 0.19; N -0.022 ± 0.16; R -0.088 ± 0.052; G -0.031 ± 0.041; E 0.12 ± 0.095; K -0.103 ± 0.067; M -0.262 ± 0.18; S 0.078 ± 0.082; C -0.321 ± 0.15; P 0.009 ± 0.092; A 0.002 ± 0.082; Q -0.153 ± 0.086; L -0.201 ± 0.088; I -0.12 ± 0.099
E58: H -0.008 ± 0.17; A -0.077 ± 0.086; F -0.331 ± 0.24; C -0.576 ± 0.17; G -0.003 ± 0.056; D -0.061 ± 0.092
